Laboratory results taken from the NTF2 design screens of Basanta et al. (2020).

Assay: protease stability score; higher = more stable; yeast display proteolysis, trypsin and chymotrypsin;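 further: relative to predicted unfolded state with 0 unfolded-like and 1 meaning tenfold more protease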

Sequence | protease stability score
DEDKKVFETALRILIHYERTGDWELLHRLADPNTRMIQGDKLHIGREKAKEFINKWTEEMRPTDVRIDHVEIINGRIHIEGTTHGDVNGQRHDLEVHILSIKVDGRWRLKEFELK | 1.2
SEDDHERHRFLELIKHNHKTGNEENIYRMADPDVRLHIGDKEFHGMEHHMEFLREWLDRLGIDKVEFQVERIHVQGDKINVDVNLNVNGKHYRVILYLIKIDGRWRIKLLEIR | 0.884
DEDQEEANHLIDLFIASLNTGDWEIIDHMADPHVKFRSVVNGKREKHIGREEMIRWFEEIEERFGYENFHVRYQRFEVQGEKMNTDITIEWNGRRFRSIILLHVFNGKLKSMEIIDI | 1.25
DEHRELEERMHELIQKANETGDWERWMELADPHTRLIVGDKEFHGMERSYEHILELFRRLGVERVEVRIERRDEQGEKINLDVIIIIGDKTIRLILIIYKVDGRWLLRSVEIR | 1.63
DTIERFVRHSFNLFVKQLETGDEHTLEKMADPHVRLEYGDKEYHGREEFKRQMHEIRFKRLELKRIEIQGEWAIMHGEDDGHFNGVDMKLESTEIAVKVNGRWYLKSFILK | 1.41
SEDEKDVKDAFDIWYESHITGNEEYARKMADPDTLSIVNGVRIHGMETWMHFLLKHQKELGIDVYTTDIHHVEVFDGRVKVDLRMREIFNGRHLEFETEVISEKIDGRWHVRSIRIT | 1.36
DEDEQAFRHIMELKIHNINTGDEESLRRLMDPHVRIIIGDKQFHGMEFATEVFRRLGIKYIEDFKIDDLRIQGDKLDAHVTVRGNFNGVHTFHKMRLILRKYDGRWYIEHEEIK | 2.14
DEDRHDVKRWLEFLVKLMETGDEEVLRTLADPNTRVDINGRDNHGWESVVTVLRELGANHIHHIEIKHLHIINGRVHIDMRVHRIQGDKTLDFDIHLHANKYNGRWHLKSVQIH | 1.24
DEEEKHHHELFKEWSRSLITGDFTTMERMIDPNARFEINGVEFHGMDTLRKFTEHLGWEIEHVHDHRIEVYDGVDHVDTKIRGRIDGRRTETRARIILFIYDGRIKSIHEETK | 0.631
DEDEDEIKRIVEIIEHALRTGDEDLMRRLFDPNARLDINGREVHGRESFIEILHHWLHELRFKSLRLHQVHIVDGKAHVDTRVTYHINGVEIHIETERNMLKVDGRWFITHEHHR | 0.025
DEEEERTKHHFELLFKLWTTGDEDSLSHLADPNVRVHVDGKDFHGWEDMKDFMREWIERFKNVRLELKHFEAQGDKASSEIKIHYGDKHVTEFIEIILFNGRLHEIRRLFKRD | 1.01
SEEDHDRELWISLLKKEAETGDERQVRENLDPNVQLDVGDKTFHGREIVLDHIHEEWKRLGLDRIKLFVDSIRIQGDKVRLDGSLDVNGKEIRVNIFLRKINGRWHIEFIHID | 0.666
SEDEERTRRISKHMLELYKTGDEDTWIKEADPNTINKIHAENHRIENHGREEVHKVLVELWERLGVKHVDLKDFDMQGEKVIIFIELRAENRIVTNIIRIVIIDGKIKSIEIELRFI | 1.21
DEDKRHADRWVDELRRVMLTGDFDTYVEMLDPHVRIEVGDKVIHGREDLIKFMRERLDRLGYERVEIRIEVSDREKQGDKIELHGTLHLFIGDKEHTHKIRIWIRKVNGQWIAESERVQ | 1.71
SEEEEEMRRMVDDIFRMLLTGDWRDFLHLADPTVRLHIGDKQAHGRTQVFELLKLYLHEWREKTIVHESIHHINGVSIIHGSLRVRINGQEHEFKVTWNIFIYDGRLKSMEIRFH | 0.337
DEEHRDLEHFMEIYEDALRTGDEKIIKFLLDPHVRFKQGNKQEHGWEAVYRYLHRFDVVKDVRFRIRSLEIQGDFLIVHYEVRYRGEINGQEHHVTIEYVIIVKKIDGKWLVHEVSIL | 1.62
DESHEHIRFWAEIYIRIFETGDWDEMSRLLDPHYRLIQGDKHIVGRERALDHIDKEIKELRIHHIHIKDVKTQGDYVRIDGHVNYNVGDKILRFDFHIKLLVVDGKIKHSEERVR | 1.28
DEEERLLHEAFEELVRVWETGDEEEKLRYMDPNTIIVINGVELHGREEARKHAHHLRIHRFHLKDYRFQGDKVHLDMHIDGFINGQKMRTDVRFQVHKIDGRWVITHSIWI | 1.71
SELEEQERTHIHKLMNAIETGDEDLFRRLFDPNVRVDVDGVEFIGREHLLILLRHMRMHARHFKEEDFSVQGDKVHLYGHLDEEIEINGKVTRRHIHVTWVLVKVNGKWVIHSQYVL | 1.41
DEEEHRIIRFIKKVLDDIVTGDWDSFRRNLDPNAKLSAEFEGRREEHVGRDIATRWMREIRIHDMEIKDMRLIDGVNIVKGHFDGRINGQRIRTDTEIWLYVVDGRITSVTIHII | 0.776
DDRERQAESMMHLWLEVLLTGDEDRLMKLADPNTRHHVNGVDAHGRENIKRVAKEFDEQMRIHRVEIRQVRIIGDKTEVDGRVDVEVNGRRRDTETHLRVIVIDGRIHEVHLIIR | 0.725
SEEEHWLDDAFRWLIELIFTGDETEIEKMIDPNVKIHIGEKNNHGREIMIEWLERLGVKHVREMRIRHVHRQGNKLIVHGEIHREVDGVKIETESLIVAKKVDGQWHLQSVRVN | 2.37
DEEERERKHIAEEFAHELETGDEERFVELADPNVRSDINGKQYHGRDRFRDWQEQWHEKVKNLRFEIERWRVIGDFVRIDVRIRIDGRRHNVEIIQVVVNGRITFLEIRVK | 0.799
DEEEEMIEKIFKHLVEALRTGDWRQLEKLFDPNVRIEIGDKHSVGREEAVKFLEEWRKRADHIEHIDFRNRRSVDGRIEIEGRHLGHIDGRLVNTRVEFEIVIVDGKIEYNRLHVL | 1.58
SESLEFATKLLEILTHLMYTGDEEDLRHLLDPHVRILFNGKYFHGMEFLMEIYKHWRIQEVRVRFRDVRDVDGRIFVRGEEENVGTINGKRDIVWSHITLIAEKVDGRWVVKEIRIE | 1.88
